Measurements taken from US20090203602A1.

What was measured:
[1] = biological target: BRAF V599E V-raf murine sarcoma viral oncogene homolog B1 V599E mutation, P15056; test: cell-based or functional assay
[2] = biological target: PRKCB1 (PKC beta I) Protein kinase C, beta 1, P05771; test: cell-based or functional assay

% Inhibition mean [1]: 99.8%
% Inhibition mean [2]: 88%
Binder: SGRPPMIVWFNRPFLIAVSHTHGQTILFMAKVINPVGA [D3 peptide]
